Usually stoichiometry N stands for a count of units in the complex or per binding partner. One may read the Km as the substrate concentration at which the rate is half of its maximum.

Numbering of substitutions follows the chain as printed. Names may count otherwise. Read-outs that look alike come from different tables or passages of the source.

The target in data set [1] is FtsEX complex (Pseudomonas aeruginosa), wild type, in peptidiscs (Pseudomonas aeruginosa). Briefly: cryo-EM structure.
Data set [2] concerns the molecule itself. Briefly: cryo-EM structure.
Data set [3] addresses T1, FtsE (Pseudomonas aeruginosa), wild type (Pseudomonas aeruginosa, UniProt A0A069QBX1 1-223).
T1 sequence: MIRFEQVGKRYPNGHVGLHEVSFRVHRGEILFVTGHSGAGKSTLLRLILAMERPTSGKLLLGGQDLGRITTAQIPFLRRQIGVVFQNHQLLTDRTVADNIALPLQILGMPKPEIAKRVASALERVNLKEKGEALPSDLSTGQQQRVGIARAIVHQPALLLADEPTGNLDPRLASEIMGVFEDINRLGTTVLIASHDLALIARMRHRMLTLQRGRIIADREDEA
In words: co-purification.

For data set [4], the target named is FtsE^E163QX–EnvC complex (Pseudomonas aeruginosa) (Pseudomonas aeruginosa). In words: cryo-EM structure.
Substrate in the data set “purified protein”: Nc1ncnc2c1ncn2[C@@H]1O[C@H](COP(=O)(O)OP(=O)(O)OP(=O)(O)O)[C@@H](O)[C@H]1O
In words: purified protein. The note with it: ATP/MgCl2, pH 7.5, 37 °C, FtsEX in peptidiscs with EnvC.

Data set [5] deals with the molecule itself. In words: cryo-EM structure. This is another data set of the same source.

In data set [1], “EnvC (Pseudomonas aeruginosa), envC^Δ19 construct, wild type (natural protein)” registered a stoichiometry N (EnvC per FtsE2-FtsX2 complex) of 1.

B1: FtsX (Pseudomonas aeruginosa) (natural protein)
chain: MSANDLPRGPEEGAPERKTREKPSQEQTDWSGSFSAYLESHRASLVDSLRRLFGHPFGSFFTCLVMGITLSLPMGLSLLLNNVERLGGSWQRAAQISLFLDLKTSENQGQDLREQIERLPDVIEAQLISREQALSELQEQSGLGEALKELPENPLPPVISVTPKQIDRAGLEALRQQLAELPHVQQAQLDLVWVERLSAILKLGERFVFGLTILLVLTLLLVVGNTIRLHIENRRNEIEVIKLVGGTDGYVRRPFLYMGALYGLGAGILSWALLAYSLNWLNGSVVNLSGLYGSDFGLQGVPLDDGLSLTVGAVLLGWVGAWLAVARHLRELAPR
For B1, the “stoichiometry N” value in the data set “cryo-EM structure [2]” was 2; in data set [3], 1 FtsE:FtsX molar ratio.

B2: AmiB (Pseudomonas aeruginosa), amiB^Δ29 construct (enzyme)
chain: SLLQAHLSHRSALRSRFRFDPAAVMDCLRAEVLGQDPALQAVEDMLKVVRADIADPRRPLFSALFLGPTGVGKTEIVRALARALHGDAEGFCRVDMNTLSQEHYAAALTGAPPGYVGAKEGTTLLEQDKLDGSPGRPGIVLFDELEKASPEVVHALLNVLDNGLLRVASGERTYHFRNTLVFMTSNLCAHEIQRYDERRQRLPWRLLPVGGERRRRDIDGMVRARLLKTFSPEFVNRLDSVVTFNWIERDVVARLVELEVQRLNRRLEKHRCRLEATPEVLAKIARAGFDRQFGARALRRSVRHHLEVPLAEHLLDHHQPGDGNCTTYLASLEHERVRFVRR
Turning to B2, the stoichiometry N (AmiB per FtsE2-FtsX2-EnvC complex) in data set [4] was determined as 1.

B3: FtsEX/EnvC (FtsEX–EnvC complex) (Pseudomonas aeruginosa PAO1) (protein)
chain: T1 sequence
For the molecule B3, the Km in the data set “purified protein” was determined as 230 µM.

B4: FtsE^E163Q (Pseudomonas aeruginosa) (natural protein)
chain: T1 sequence with E163Q
Consider B4, for which, in the data set “cryo-EM structure [5]”, the “stoichiometry N” value amounted to 2.

The values are drawn from article PMC10214136 (Proceedings of the National Academy of Sciences of the …, 2023).
